Laboratory results: patent US20100011462A1, “FLAVIN MONOOXYGENASES AND TRANSCRIPTION FACTORS INVOLVED IN GLUCOSINOLATE BIOSYNTHESIS” (University of Copenhagen, priority 2006, published 2010)

Tests used:
At1g65860 = target: T1, At1g65860 (Arabidopsis thaliana, UniProt Q9SS04); test: Enzymatic activity of heterologously expressed At1g65860 in E. coli spheroplasts; format: biochemical; conditions: 1 hour at 30° C.; for oxygenation on the sulfur: tested as substrates at 0.1 mM, 1 mM and 10 mM
T1 construct: (AT1G65860) mRNA, complete cds; made in house; host or cells: E. coli TOP10, arabinose-induced pBAD-TOPO; crude spheroplast preparation, 50 ug total protein
T1 sequence (Q9SS04 1-459): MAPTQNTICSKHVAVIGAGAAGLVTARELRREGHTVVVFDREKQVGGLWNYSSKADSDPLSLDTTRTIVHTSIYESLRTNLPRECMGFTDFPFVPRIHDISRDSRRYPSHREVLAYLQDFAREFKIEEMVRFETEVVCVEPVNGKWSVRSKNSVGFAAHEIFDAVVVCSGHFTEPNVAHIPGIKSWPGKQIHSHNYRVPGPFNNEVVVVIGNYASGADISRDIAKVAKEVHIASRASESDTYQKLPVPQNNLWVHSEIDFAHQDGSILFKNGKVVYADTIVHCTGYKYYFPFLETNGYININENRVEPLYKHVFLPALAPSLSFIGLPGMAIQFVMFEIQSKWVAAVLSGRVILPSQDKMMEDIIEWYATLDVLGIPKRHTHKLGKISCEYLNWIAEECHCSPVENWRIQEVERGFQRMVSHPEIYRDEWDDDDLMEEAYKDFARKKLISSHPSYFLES
Description: FIG. 3—Enzymatic activity of heterologously expressed At1g65860 in E. coli spheroplasts using the arabinose inducible pBad TOPO® TA Expression system (Invitrogen). 50 μg total E. coli protein were used for each assay and allowed to proceed for 1 hour at 30° C. 4-methylsulfinylbutyl glucosinolate and desulfo-methylsulfinylbutyl glucosinolate production were quantified by HPLC (monitored at 229 nm). Compound identities were confirmed by comparison of both retention times, UV light absorption profiles and mass by LC/MS with those of authentic standards.
At1g65860 pBAD-TOPO constructs and a vector control (empty pBAD-TOPO) were transformed into the E. coli strain TOP10 (Invitrogen). Single colonies were grown overnight in Luria broth (LB) with 100 μg/ml ampicillin. One milliliter of the overnight culture was used to inoculate 100 ml of LB medium supplemented with 100 μg/ml ampicillin and the culture was grown at 37° C., 250 rpm to OD600=0.5, at which time arabinose (final conc. 0.02%) was added. The culture was grown at 28° C., 250 rpm for 16 h.
Following arabinose induction, spheroplasts of E. coli cells were prepared. The culture was chilled on ice, pelleted at 2500 g for 10 min, followed by resuspension by sequential addition of 8.3 ml 200 mM Tris/HCl, pH 7.6, 1.42 g sucrose, 16.7 μL […], 41.7 μL 0.1M phenylmethylsulfonyl fluoride, 33.3 μL lysozyme (50 mg/ml) and finally 8.31 mL ice-cold water with slow stirring. After 30 min incubation at 4° C. with slow stirring, 166 μL 1M Mg(OAc)2 was added and membranes were pelleted at 3000 g for 10 min at 4° C. Pellet was resuspended in 1800 μL 10 mM Tris/HCl pH 7.6/14 mM Mg(OAc)2/60 mM KOAc. The suspension was homogenized in a Potter-Elvehjem followed by the addition of 5 μL RNAse (10 mg/ml) and 5 μL DNAse (5 mg/ml) and slowly stirred for 30 min at 4° C. 235 μL 87% glycerol was added and the spheroplasts were stored at −80° C. for several weeks without loss of activity.
The 100 ul assay solution contained substrate and spheroplasts corresponding to 50 ug total E. coli protein in a 0.1 M Tricine at pH 7.9, 0.25 mM NADPH buffer. The reaction was allowed to proceed for 1 hour at 30° C. and terminated by the addition of 100 μL methanol and centrifuged at 5000 g for 2 min. The supernatant was moved to new tubes followed by lyophilization to dryness and finally redissolved in 50 μL water.
4-methylthiobutyl glucosinolate and desulfo 4-methylthiobutyl glucosinolate were used as substrates with final concentrations in the assay as given in FIG. 3. 4-methylthiobutyl oxime, dihomomethionine, methionine were tested as substrates at 0.1 mM, 1 mM and 10 mM final concentrations. […]

[1] = Activity of FMOs of the invention in E. coli or in seeds using a variety of substrates; format: biochemical, Arabidopsis thaliana; conditions: for S-oxygenation activity: desulfo and intact glucosinolates; for substrate specificity: methylthio glucosinolates in Arabidopsis
Source text: FIG. 11—Heterologous expression of At1g62560 in E. coli using 4MTB as substrate, with an empty vector as control.
FIG. 13—Heterologous expression of At1g62540 in E. coli using 4MTB as substrate, with an empty vector as control.
FIG. 15—Heterologous expression of At1g12140 in E. coli using desulfo-glucosinolates from glucosinolates from Arabidopsis Col-0 seeds as substrate mix.
FIG. 17—Heterologous expression of At1g62570 in E. coli using desulfo-glucosinolates from glucosinolates from Arabidopsis Col-0 seeds as substrate mix, with an empty vector as control.
FIGS. 11-18 show the activity of At1g62560, At1g65860, At1g62540, At1g12140 and At1g62570 in E. coli or in seeds using a variety of substrates.

Row | Molecule | oxygenation on the sulfur (At1g65860) | production of 4MSB from 4MTB (At1g65860; 50 μg total E. coli protein, HPLC 229 nm) | S-oxygenation activity [1] | substrate specificity [1]
1 | CSCC[C@H](N)C(=O)O [methionine] | No oxygenation on the sulfur | – | – | –
2 | CSCCCC/C=N\O [4-methylthiobutyl oxime] | No oxygenation on the sulfur | – | – | –
3 | At1g62540: flavin-containing monooxygenase (FMO) from A. thaliana, SEQ ID NO 8 (protein, listed as Arabidopsis thaliana) MAPAQNPISSQHVVVIGAGAAGLVAARELSREGHTVVVLEREKEVGGLWIYSPKAESDPLSLDPTRSIVHSSVYESLRTNLPRECMGFTDFPFVPRFDDESRDSRRYPSHMEVLAYLQDFAREFNLEEMVRFEIEVVRVEPVNGKWRVWSKTSGGVSHDEIFDAVVVCSGHYTEPNVAHIPGIKSWPGKQIHSHNYRVPGPFENEVVVVIGNFASGADISRDIAKVAKEVHIASRASEFDTYEKLPVPRNNLWIHSEIDTAYEDGSIVFKNGKVVYADSIVYCTGYKYRFTFLETNGYMNIDENRVEHLYKHVFPPALSPGLSFVGLPSMGIQFVMFEIQSKWVAAVLSRRVTLPTEDKMMEDISAWYASLDAVGIPKRYTHKLGKIQSEYLNWVAEECGCPLVEHWRNQQIVRGYQRLVSHPETYRDEWDDNDLMEEAYEDFARKKLISFHPSHIL | – | – | S-oxygenation activity | broad specificity towards all methylthio (MT) glucosinolates
4 | At1g12140: flavin-containing monooxygenase (FMO) from A. thaliana, SEQ ID NO 10 (protein, listed as Arabidopsis thaliana) MAPARTRVNSLNVAVIGAGAAGLVAARELRRENHTVVVFERDSKVGGLWVYTPNSEPDPLSLDPNRTIVHSSVYDSLRTNLPRECMGYRDFPFVPRPEDDESRDSRRYPSHREVLAYLEDFAREFKLVEMVRFKTEVVLVEPEDKKWRVQSKNSDGISKDEIFDAVVVCNGHYTEPRVAHVPGIDSWPGKQIHSHNYRVPDQFKDQVVVVIGNFASGADISRDITGVAKEVHIASRSNPSKTYSKLPGSNNLWLHSMIESVHEDGTIVFQNGKVVQADTIVHCTGYKYHFPFLNTNGYITVEDNCVGPLYEHVFPPALAPGLSFIGLPWMTLQFFMFELQSKWVAAALSGRVTLPSEEKMMEDVTAYYAKREAFGQPKRYTHRLGGGQVDYLNWIAEQIGAPPGEQWRYQEINGGYYRLATQSDTFRDKWDDDHLIVEAYEDFLRQKLISSLPSQLLES | – | – | S-oxygenation activity | mainly converts long-chain (especially octyl)methylthioalkyl-into methylsulfinyl glucosinolates
5 | At1g62570: flavin-containing monooxygenase (FMO) from A. thaliana, SEQ ID NO 6 (protein, listed as Arabidopsis thaliana) MAPAPSPINSQHVAVIGAGAAGLVAARELRREGHTVVVLDREKQVGGLWVYTPETESDELGLDPTRPIVHSSVYKSLRTNLPRECMGYKDFPFVPRGDDPSRDSRRYPSHREVLAYLQDFATEFNIEEMIRFETEVLRVEPVNGKWRVQSKTGGGFSNDEIYDAVVMCCGHFAEPNIAQIPGIESWPGRQTHSHSYRVPDPFKDEVVVVIGNFASGADISRDISKVAKEVHIASRASKSNTFEKRPVPNNNLWMHSEIDTAHEDGTIVFKNGKVVHADTIVHCTGYKYYFPFLETNNYMRVDDNRVEPLYKHIFPPALAPGLSFIGLPAMGLQFYMFEVQSKWVAAVLSGRVTLPSVDEMMDDLKLSYETQEALGIPKRYTHKLGKSQCEYLDWIADLCGFPHVEHWRDQEVTRGYQRLGNQPETFRDEWDDDDLMEEAYEDFARLNLINFHPSRFLESGR | – | – | S-oxygenation activity | broad specificity towards all methylthio (MT) glucosinolates

More lines, main results first:

Row | oxygenation on the sulfur (At1g65860) | production of 4MSB from 4MTB (At1g65860; 50 μg total E. coli protein, HPLC 229 nm) | Molecule | S-oxygenation activity [1] | substrate specificity [1]
6 | – | production of 4MSB from 4MTB | CSCCCC/C(=N/OS(=O)(=O)O)S[C@@H]1O[C@H](CO)[C@@H](O)[C@H](O)[C@H]1O [4MTB, 4-methylthiobutyl glucosinolate] | – | –
7 | No oxygenation on the sulfur | – | CSCCCCC(N)C(=O)O (stereo not shown) [dihomomethionine] | – | –
